Results: patent US20140065154A1, “TLR3 BINDING AGENTS” (INNATE PHARMA, priority 2011, published 2014)
Like-named read-outs stand apart in the source and are kept apart here.

What was measured:
[1] = cited from earlier work
COPD mouse model = assay: In vivo efficacy model of COPD (Elastin and LPS); parameters: species or system mice; settings: drug combination study
Procedure: Three groups of 10 male mice were treated as follows: • 1 group of 10 mice with a vehicle. • 1 group of 10 mice with the anti-mouse TLR328G7 antibody administration (i.p., 500 μg/per mouse) on days 0, 3, 7, 10, 14, 17, 21 and 24. • 1 group of 10 mice with the positive control roflumilast (approved as […]; antagonist of PDE-4) (oral, 15 mg/kg, five times per week). All mice were treated at days 0, 7, 14 and 21 with Elastin and LPS (i.n.), to induce COPD. At day 28 mice were sacrificed for analysis. The cellular infiltrates into airways was measured by analysis of bronchoalveolar lavage (BAL) fluid by differential cell count on day 28. The oxygenation of venous blood was measured by gasometry on day 28. The level inflammatory mediators in BALF, through the analysis for protein levels of TNF-alpha, IL-6, IL-17A and IP-10 was performed by multiplex assay. […] Statistical analysis was performed on all data utilizing a Student's t test: '*' p<0.05; '**' p<0.005; '***'p<0.0005. […] All mice were treated with Elastin and LPS (i.n.), to induce COPD and sacrified as in study A. The cellular infiltrates into airways was measured by analysis of bronchoalveolar lavage (BAL) fluid by differential cell count as in Study A.

[2] = target: T1, wild type human TLR3 expressed in 293T cells (human, UniProt O15455 24-904); assay: cell-based or functional assay
[3] = target: T2, recombinant human TLR3 extracellular domain (R&D Systems) (human, UniProt O15455 27-711); assay: SPR (Biacore T100), rhTLR3 immobilised on CM5 chip, bivalent affinity, pH 7.2
T2 construct: also called rhTLR3; human rec TLR3; not shown: His tag (R&D #1487-TR)

[4] = target: T1, wild type human TLR3 expressed in 293T …; assay: cell-based or functional assay; remark: listed apart in the source
[5] = target: T2, recombinant human TLR3 extracellular …; assay: SPR (Biacore T100), rhTLR3 immobilised on CM5 chip, bivalent affinity, pH 5.6
TLR3 [6] = target: T3, TLR3 (Homo sapiens, UniProt O15455); assay: 293T-TLR3-ISRE luciferase reporter gene assay; format: cell-based; parameters: host or cells: 293T (ATCC #CRL-1573), stably carrying pISRE-luc; settings: dsRNA TLR3 agonist
Description: A reporter gene assay using as promoter ISRE (IFN-stimulated response element) and as reporter gene and protein luciferase was set up. A 293T cell line (ATCC, #CRL-1573) was stably transfected with pISRE-luc plasmid (#219089—Stratagene), further selected by cloning as inducing optimal response to IFN-alpha stimulation and referred to as control 293T-ISRE. This cell line was further stably transfected with pUNO-humanTLR3 plasmid (#puno-htlr3—InVivogen) or pUNO-mouseTLR3 plasmid (#puno-mtlr3—InVivogen) and referred to as 293T-TLR3-ISRE and 293T-mTLR3-ISRE respectively. On day 0, cells are seeded at 4×10^5 cells/mL in complete culture medium in 96-well culture plate (100 μl/well). Cells are first incubated at 37° C. for 20 hours, then 50 μL of medium are discarded and cells are activated with 100 μL/well final of increasing amounts of polyAU together with various concentrations of anti-TLR3 antibodies. Cells incubated with fresh medium will be used as background luciferase activity. Cells are incubated at 37° C. for 6 hours. 100 μL of freshly thawed Steady Glo (Promega) are added to each well, plates were incubated 10 min at RT in the dark and the light emitted in each well is quantified as Count Per Second (CPS) on a gamma-counter (TopCount) apparatus.
Antibodies were tested for inhibition of TLR3 signaling in a luciferase based reporter gene activity (293T-TLR3-ISRE). […] Briefly, dsRNA TLR3 agonists were used to induce TLR3 signaling in the reporter assay in the presence of anti-TLR3 antibodies, and TLR3 signaling was assessed.
In a further set of experiments, 293-huTLR3 cells were incubated with different concentrations of the anti-TLR3 mAbs for 1 to 2 hours (see FIG. 1A; mAb concentration is represented in axis in μg/ml on a logarithmic scale) followed by the addition to the medium of the TLR3 agonist polyAU at a concentration of 300 μg/ml. Luciferase expression was measured after 6 h. […]
Similarly the kinetics of inhibition of the antibodies was evaluated in 293T-TLR3 luciferase assay. […] Luciferase expression was measured at 6 h post poly(A:U) addition. […]

TLR3 [7] = target: T3, TLR3; assay: SPR competition assay with polyAU in acidic buffer; format: binding; parameters: purchased R&D Systems; settings: pH 5.6
Procedure: (a) General Biacore T100 methods. SPR measurements were performed on a Biacore T100 apparatus (Biacore GE Healthcare) at 25° C. In all Biacore experiments HBS-EP+ buffer (Biacore GE Healthcare) or 10 mM sodium acetate pH 5.6, 150 mM NaCl, 0.05% P20 served as running buffer and sensorgrams were analyzed with Biaevaluation 4.1 and Biacore T100 Evaluation software. Recombinant human and mouse TLR3 were purchased from R&D Systems. (b) Protein immobilization. Recombinant TLR3 protein was immobilized covalently to carboxyl groups in the dextran layer of a Biacore Series 5 Sensor Chip CM5 (chip). The chip surface was activated with EDC/NHS (0.2M N-ethyl-N′-(3-dimethylaminopropyl) carbodiimidehydrochloride, 0.05M N-hydroxysuccinimide (Biacore GE Healthcare)). […] Deactivation of the remaining activated groups was performed using 100 mM ethanolamine pH 8 (Biacore GE Healthcare). (c) Antibody binding analysis was run using HBS-EP+ (neutral pH). Antibodies at a concentration of 10 μg/ml were injected for 2 min at a constant flow rate of 10 μl/min over the immobilized proteins and allowed to dissociate for 3 min before regeneration by a ten second injection of 10 mM NaOH, 500 mM NaCl regeneration buffer. Blank correction was performed on line by co-injecting the soluble antibodies onto the reference dextran flow cell. (d) Competition assay in acidic buffer (pH 5.6). Flow rate was set to 10 μl/min, the first antibody at a concentration of 50 μg/ml (or polyAU at 100 μg/ml) was injected for 2 min, 3 times successively in order to saturate the rhTLR3 surface. The second antibody (or polyAU at 100 μg/ml when the polyAU was added after first antibody) was then injected for 2 min also at 50 μg/ml and allowed to dissociate for 3 min before regeneration by a 15 second injection of 10 mM NaOH, 500 mM NaCl regeneration buffer. Blank correction was also performed on line and the curve using the saturating antibody (or neucleic acid) followed by an injection of buffer subtracted to remove the signal due to the dissociation of the first complex. The resulting signal was compared to that obtained by the injection of the second antibody directly onto the rhTLR3 surface.
Competition assays were conducted according to the methods described for SPR, item d) at pH 5.6.
Buffer (followed by polyAU) is represented in the lower line, while 31C3 followed by polyAU is in the upper line.

For Adalimumab, the half-life ([1]; after a standard 40 mg dose) is given as “approximately 2 weeks” and the “half-life (range)” value ([1]; after a standard 40 mg dose) is given as 240 to 480 h.

For `O=C(Nc1c(Cl)cncc1Cl)c1ccc(OC(F)F)c(OCC2CC2)c1` [Roflumilast, roflumilast], the “BAL macrophages and lymphocytes” value (COPD mouse model) was “decreases in macrophages” and the BAL neutrophil infiltration (COPD mouse model) was “decreased infiltration of neutrophils into the airways”.

For Etanercept, the half-life ([1]; after a 25 mg dose) is given as 70 h.

B1: antibody 23C8 (antibody, V domains shown)
VH: EVQLQQSGPELVKPGASVKISCKASGYSFTGYFMHWVKQSHVKSLEWIGRINPYNGATSYNQNFKDKASLTVDKSSSTSYMELHSLTSEDSAVYYCVRDDGGNYPFDYWGQGTTLTVS
VL: DIQMTQSPASLSASVGETVTITCRASENIYSYLAWYQQKQGKSPQLLVYYAKTLAEGVPSRFSGSGTGTQFSLKINSLQPEDFGSYYCQHHYGTPYTFGGGTKLEIK
notes: also called 23C8.4
In the case of B1, the “IC50, luciferase reporter inhibition test with 100 µg/ml of polyAU” value [2] is reported as under 5 µg/mL, the Kd [3] is reported as 0.138 nM and the “IC50 (µg/ml), inhibition of polyAU (300 µg/ml)-induced luciferase expression in 293-huTLR3 ISRE reporter cells” value [4] is reported as 1.83 µg/mL. For the same molecule, the Kd [5] was 0.0103 nM.

B2: antibody 28F11 (antibody, V domains shown)
VH: EVQLQQSGPELVKPGASVKISCKASGYSFTGYYIHWVKQSHVKSLEWIGRINPYYGATSYNQNFKDKANLTVDKSSSTAYMELHSLTSDDSAVYYCARSTKLGYLDYWGQGTTLTVS
VL: DIQMTQSPASLSASVGETVTITCRASENIYSNLAWYQQKQGKSPQLLIYNAKTLAEGVPSRFSGSGSGTQYFLKINSLQPEDFGSYYCQHHYGTPFTFGGGTKLEIK
In the case of B2, the Kd [3] is reported as 0.65 nM, the “IC50 (µg/ml), inhibition of polyAU (300 µg/ml)-induced luciferase expression in 293-huTLR3 ISRE reporter cells” value [4] is reported as 5.56 µg/mL and the Kd [5] is reported as 0.335 nM.

B3: antibody 34A3 (antibody, V domains shown)
VH: EIQLQQSGPELVKPGASVKVSCKASGYVFTTYSIYWVKQSHGKSLEWIGYIDPYNGDTSYNQKFKGKATLTVDKSSSTAYMHLNSLTSEDSTVYYCAREGNYYGYFDYWGQGTTLTVS
VL: QIVLTQSPALMSASPGEKVTMTCSASSSVSYMFWYQQKPRSSPKPWIYLTSNLASGVPARFSGSGSGTSYSLTISSMEAEDAATYYCQQWTGNPPTFGGGTKLEIK
notes: Mouse hybridoma antibody (Balb/c, immunization series #2); also called 34A3.5; printed 34A4, 32A4 and 34A2 in some places
In the case of B3, the “IC50, luciferase reporter inhibition test with 100 µg/ml of polyAU” value [2] is reported as under 5 µg/mL, the Kd [3] is reported as 0.00301 nM and the Kd [5] is reported as 0.0517 nM.

B4: 23C8: anti-human TLR3 monoclonal antibody, IgG1; VH SEQ ID NO: 26, VL SEQ ID NO: 27 (antibody, listed as Mus musculus, V domains shown)
VH: MGWSWIFLFLLSGTAGVLSEVQLQQSGPELVKPGASVKISCKASGYSFTGYFMHWVKQSHVKSLEWIGRINPYNGATSYNQNFKDKASLTVDKSSSTSYMELHSLTSEDSAVYYCVRDDGGNYPFDYWGQGTTLTVS
VL: MSVPTQVLGLLLLWLTGARCDIQMTQSPASLSASVGETVTITCRASENIYSYLAWYQQKQGKSPQLLVYYAKTLAEGVPSRFSGSGTGTQFSLKINSLQPEDFGSYYCQHHYGTPYTFGGGTKLEIK
modifications: SIGNAL (1)..(19); SIGNAL (1)..(20)
For B4, the “inhibition of TLR3 signaling” value (TLR3 [6]) was “strongly inhibited TLR3 signaling in a dose dependent fashion” and the “antibody binding to TLR3 chip previously incubated with polyAU” value (TLR3 [7]) was “able to bind TLR3 even in the presence of polyAU”.

B5: 28F11: anti-human TLR3 monoclonal antibody, IgG1; VH SEQ ID NO: 18, VL SEQ ID NO: 19 (antibody, listed as Mus musculus, V domains shown)
VH: MGWSWIFLFLLSGTAGVLSEVQLQQSGPELVKPGASVKISCKASGYSFTGYYIHWVKQSHVKSLEWIGRINPYYGATSYNQNFKDKANLTVDKSSSTAYMELHSLTSDDSAVYYCARSTKLGYLDYWGQGTTLTVS
VL: MSVPTQVLGLLLLWLTGARCDIQMTQSPASLSASVGETVTITCRASENIYSNLAWYQQKQGKSPQLLIYNAKTLAEGVPSRFSGSGSGTQYFLKINSLQPEDFGSYYCQHHYGTPFTFGGGTKLEIK
modifications: SIGNAL (1)..(19); SIGNAL (1)..(20)
With B5 the “inhibition of TLR3 signaling” value (TLR3 [6]) was “strongly inhibited TLR3 signaling in a dose dependent fashion” and the “antibody binding to TLR3 chip previously incubated with polyAU” value (TLR3 [7]) was “able to bind TLR3 even in the presence of polyAU”.
